Reference: PMC5582856, “Inverted stereocontrol of iridoid synthase in snapdragon” (The Journal of Biological Chemistry, 2017)

Substrate: C/C(C=O)=C\CC/C(C)=C/C=O
Experiment: purified protein
Assay type: biochemical, Antirrhinum majus
Settings: 50 μM NADPH fixed, 200 mM MOPS pH 7.0, 100 mM NaCl, 1% THF, 25 °C, 20 nM enzyme

B1: AmISY (Am18679), Antirrhinum majus iridoid synthase (Antirrhinum majus) (protein)
chain: MSWWYRRSIGETEQKRIEINGVSPTYQSVALIVGVTGIAGSGLAETLSFSDTPGGPWKVYGVARRPCPKWLAKLNVNYVQCDIANTDETYSKVAPLTDITHIFYVSWTGSEDVALNTLMFKNILDSVIPNAPNLKHVSLQTGIKYYWGNMAEMDSTNQPHECPFYENMPRLKQDNFYYNLEDLVYDSAVRKNGLSWSIHRPALIFGFSPCSMMNTVSTLCVYAAICKHENKPLVYTGTETSWTCLWDAVDSDLLAEHFLWAATVPNAKNQAFNINNGDVFKWKHMWKVLAKEFDIEAIGYEGKEPVLLEDLMKDKDSVWDEIVKKHDLVPTKLRDIAAFWLADVVFRNKETLCSMNKNKEFGFMGFRDTTKSFVSSINKMRDFKFIP
notes: GenBank record is one of MF281392-MF281395 (not assigned in the text)
Km: 1.1 ± 0.1 µM | kcat: 0.72 ± 0.02 s⁻¹
